Test results reported in US20240124553A1.

How the values were obtained:
Assay in all cases: flow cytometry, transfected 293T cells
[1] = target: CHIKV E2-E1 envelope glycoproteins (strain S27), E2 mutant T58A (chikungunya virus strain S27) (UniProt Q8JUX5)
[2] = target: CHIKV E2-E1 envelope glycoproteins (strain S27), E2 mutant Q53A (chikungunya virus strain S27) (UniProt Q8JUX5)
[3] = target: CHIKV E2-E1 envelope glycoproteins (strain S27), E2 mutant Q49A (chikungunya virus strain S27) (UniProt Q8JUX5)
[4] = target: CHIKV E2-6K-E1 envelope proteins (strain S27) with E2 G204A (Chikungunya virus strain S27) (UniProt Q8JUX5)
[5] = target: CHIKV E2-6K-E1 envelope proteins (strain S27) with E2 V216A (Chikungunya virus strain S27) (UniProt Q8JUX5)
[6] = target: CHIKV E2-6K-E1 envelope proteins (strain S27) with E2 V192A (Chikungunya virus strain S27) (UniProt Q8JUX5)
[7] = target: CHIKV E2-6K-E1 envelope proteins (strain S27) with E2 N202A (Chikungunya virus strain S27) (UniProt Q8JUX5)
[8] = target: CHIKV E2-6K-E1 envelope proteins (strain S27) with E2 V197A (Chikungunya virus strain S27) (UniProt Q8JUX5)
[9] = target: CHIKV E2-6K-E1 envelope proteins (strain S27) with E2 G209A (Chikungunya virus strain S27) (UniProt Q8JUX5)
[10] = target: CHIKV E2-6K-E1 envelope proteins (strain S27) with E2 K215A (Chikungunya virus strain S27) (UniProt Q8JUX5)
[11] = target: CHIKV E2-6K-E1 envelope proteins (strain S27) with E2 C203A (Chikungunya virus strain S27) (UniProt Q8JUX5)
[12] = target: CHIKV E2-6K-E1 envelope proteins (strain S27) with E2 I190A (Chikungunya virus strain S27) (UniProt Q8JUX5)
[13] = target: CHIKV E2-6K-E1 envelope proteins (strain S27) with E2 I211A (Chikungunya virus strain S27) (UniProt Q8JUX5)
[14] = target: CHIKV E2-6K-E1 envelope proteins (strain S27) with E2 L181A (Chikungunya virus strain S27) (UniProt Q8JUX5)
[15] = target: CHIKV E2-6K-E1 envelope proteins (strain S27) with E2 V188A (Chikungunya virus strain S27) (UniProt Q8JUX5)
[16] = target: CHIKV E2-6K-E1 envelope proteins (strain S27) with E2 N193A (Chikungunya virus strain S27) (UniProt Q8JUX5)
[17] = target: CHIKV E2-6K-E1 envelope proteins (strain S27) with E2 Q183A (Chikungunya virus strain S27) (UniProt Q8JUX5)
[18] = target: CHIKV E2-6K-E1 envelope proteins (strain S27) with E2 L180A (Chikungunya virus strain S27) (UniProt Q8JUX5)
[19] = target: CHIKV E2-6K-E1 envelope proteins (strain S27) with E2 N218A (Chikungunya virus strain S27) (UniProt Q8JUX5)
[20] = target: CHIKV E2-6K-E1 envelope proteins (strain S27) with E2 S194A (Chikungunya virus strain S27) (UniProt Q8JUX5)
[21] = target: CHIKV E2-6K-E1 envelope proteins (strain S27) with E2 Y199A (Chikungunya virus strain S27) (UniProt Q8JUX5)
[22] = target: CHIKV E2-6K-E1 envelope proteins (strain S27) with E2 N219A (Chikungunya virus strain S27) (UniProt Q8JUX5)
[23] = target: CHIKV E2-6K-E1 envelope proteins (strain S27) with E2 T196A (Chikungunya virus strain S27) (UniProt Q8JUX5)
[24] = target: CHIKV E2-6K-E1 envelope proteins (strain S27) with E2 C220A (Chikungunya virus strain S27) (UniProt Q8JUX5)
[25] = target: CHIKV E2-6K-E1 envelope proteins (strain S27) with E2 S182A (Chikungunya virus strain S27) (UniProt Q8JUX5)
[26] = target: CHIKV E2-6K-E1 envelope proteins (strain S27) with E2 C201A (Chikungunya virus strain S27) (UniProt Q8JUX5)
[27] = target: CHIKV E2-6K-E1 envelope proteins (strain S27) with E2 K200A (Chikungunya virus strain S27) (UniProt Q8JUX5)
[28] = target: CHIKV E2-6K-E1 envelope proteins (strain S27) with E2 G205A (Chikungunya virus strain S27) (UniProt Q8JUX5)
[29] = target: CHIKV E2-6K-E1 envelope proteins (strain S27) with E2 N187A (Chikungunya virus strain S27) (UniProt Q8JUX5)
[30] = target: CHIKV E2-6K-E1 envelope proteins (strain S27) with E2 R198A (Chikungunya virus strain S27) (UniProt Q8JUX5)
[31] = target: CHIKV E2-6K-E1 envelope proteins (strain S27) with E2 G186A (Chikungunya virus strain S27) (UniProt Q8JUX5)
[32] = target: CHIKV E2-6K-E1 envelope proteins (strain S27) with E2 L210A (Chikungunya virus strain S27) (UniProt Q8JUX5)

Question: With CHIKV mAb C9 (antibody) as the substance, how does the Binding Reactivity (% WT) [1] read?
Answer: 98.6 % WT

Question: And the Binding Reactivity (% WT) [2]?
Answer: 39.6 % WT

Question: What about the Binding Reactivity (% WT) [3] of the same substance?
Answer: 47 % WT

Question: Which results are given for CHIKV mAb IM-CKV065 (antibody)?
Answer: Binding Reactivity (% WT) [1]: 93.5 % WT; Binding Reactivity (% WT) [2]: 43.3 % WT; Binding Reactivity (% WT) [3]: 37.3 % WT

Question: “Mxra8-Fc (mouse Mxra8 extracellular domain fused to mouse IgG2b Fc) (Fc fusion)” was tested. Which Binding Reactivity (% WT) [4] did it give?
Answer: 76.7 % WT

Question: What about the Binding Reactivity (% WT) [5] of the same substance?
Answer: 82.9 % WT

Question: And the Binding Reactivity (% WT) [6]?
Answer: 56.9 % WT

Question: And the Binding Reactivity (% WT) [7]?
Answer: 80.6 % WT

Question: And the Binding Reactivity (% WT) [8]?
Answer: 33.9 % WT

Question: And the Binding Reactivity (% WT) [9]?
Answer: 77.9 % WT

Question: What about the Binding Reactivity (% WT) [10] of the same substance?
Answer: 106 % WT

Question: And the Binding Reactivity (% WT) [11]?
Answer: 10.4 % WT

Question: And the Binding Reactivity (% WT) [12]?
Answer: 9.4 % WT

Question: What about the Binding Reactivity (% WT) [13] of the same substance?
Answer: 81.1 % WT

Question: What about the Binding Reactivity (% WT) [14] of the same substance?
Answer: 53.2 % WT

Question: And the Binding Reactivity (% WT) [15]?
Answer: 55.2 % WT

Question: And the Binding Reactivity (% WT) [16]?
Answer: 120 % WT

Question: What about the Binding Reactivity (% WT) [17] of the same substance?
Answer: 96.1 % WT

Question: What about the Binding Reactivity (% WT) [18] of the same substance?
Answer: 57 % WT

Question: What about the Binding Reactivity (% WT) [1] of the same substance?
Answer: 94.1 % WT

Question: What about the Binding Reactivity (% WT) [19] of the same substance?
Answer: 56.5 % WT

Question: What about the Binding Reactivity (% WT) [2] of the same substance?
Answer: 26.3 % WT

Question: And the Binding Reactivity (% WT) [20]?
Answer: 87 % WT

Question: And the Binding Reactivity (% WT) [21]?
Answer: 15.9 % WT

Question: And the Binding Reactivity (% WT) [22]?
Answer: 66.6 % WT

Question: And the Binding Reactivity (% WT) [23]?
Answer: 86.6 % WT

Question: What about the Binding Reactivity (% WT) [24] of the same substance?
Answer: 60.2 % WT

Question: And the Binding Reactivity (% WT) [25]?
Answer: 70.9 % WT

Question: And the Binding Reactivity (% WT) [26]?
Answer: 9.6 % WT

Question: And the Binding Reactivity (% WT) [27]?
Answer: 75.5 % WT

Question: And the Binding Reactivity (% WT) [28]?
Answer: 78.9 % WT

Question: What about the Binding Reactivity (% WT) [29] of the same substance?
Answer: 90.5 % WT

Question: And the Binding Reactivity (% WT) [30]?
Answer: 74 % WT

Question: What about the Binding Reactivity (% WT) [31] of the same substance?
Answer: 108 % WT

Question: What about the Binding Reactivity (% WT) [32] of the same substance?
Answer: 70.1 % WT

Question: And the Binding Reactivity (% WT) [3]?
Answer: 56.8 % WT

Question: For CHIKV mAb IM-CKV063 (antibody), which Binding Reactivity (% WT) [1] is on record?
Answer: 88.7 % WT

Question: What about the Binding Reactivity (% WT) [2] of the same substance?
Answer: 37.3 % WT

Question: What about the Binding Reactivity (% WT) [3] of the same substance?
Answer: 55.4 % WT

Question: With CHIKV mAb CHKV-88 (antibody) as the substance, how does the Binding Reactivity (% WT) [1] read?
Answer: 81.2 % WT

Question: What about the Binding Reactivity (% WT) [2] of the same substance?
Answer: 85 % WT

Question: What about the Binding Reactivity (% WT) [3] of the same substance?
Answer: 87.1 % WT
